From EP4417623A1 (Fundació Institut de Recerca Contra la Leucèmia Josep …, dated 2024)
Where no end group is shown, it is not given here.

Experiments:
Peptide 4: SMEDYVNFNF-C = biological target: T1, Peptide 4: SMEDYVNFNF-C (not fully specified; printed as SMEDYVNFNF-C); test: peptide ELISA titration, OD450
T1 peptide: SMEDYVNFNFC

Peptide 3: SSMEDYVNFN-C = biological target: T2, Peptide 3: SSMEDYVNFN-C (not fully specified; printed as SSMEDYVNFN-C); test: peptide ELISA titration, OD450
T2 peptide: SSMEDYVNFNC

[1] = biological target: T3, CCR9 peptide #1 MADDYGSESTSSMEDYVNFNF-C (human, extra C-terminal Cys for BSA conjugation (coated as non-conjugated or BSA-conjugated peptide)); test: ELISA screening against the immunisation peptide
T3 construct: This is the immunisation peptide; It was conjugated to BSA for the ELISA screenings; also called MADDY peptide; complete antigen peptide
T3 peptide: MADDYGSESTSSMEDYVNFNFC

Measured: binding result

B1: anti-CCR9 antibody clone 115 (antibody, V domains shown)
VH: QVQLKQSGPELVKPGTSVRVSCTASGYSFTDYIIYWVKQSHGRSLEWIGYIDPNNYNTRYSQKFKGKATLTVDKSSTSAFMHLNSLTSDDSAVYYCARDVYWGQGTTLTVSS
VL: DVVMTQTPLSLTVSLGDQASISCRSSQSLVHSNGKTYLQWYLQKPGQSPKLLIYKVSNRFSGVPDRFSGSGSGTDFTLKISRVEAEDLGVYFCAQSTHVWTFGGGTKLEIKR
notes: Murine monoclonal antibody, isotype IgG1; It was tested as hybridoma supernatant in the FACS screening and as Protein A/G purified antibody in the ELISA
binds: all assays above
